Data on 2 proteins can be found in paper PMC5877544, “D181A Site-Mutagenesis Enhances Both the Hydrolyzing and Transfructosylating Activities of BmSUC1, a Novel β-Fructofuranosidase in the Silkworm Bombyx mori” (International Journal of Molecular Sciences, 2018).

Substrate in series [1]: OC[C@H]1O[C@H](OC[C@H]2O[C@H](O[C@]3(CO)O[C@H](CO)[C@@H](O)[C@@H]3O)[C@H](O)[C@@H](O)[C@@H]2O)[C@H](O)[C@@H](O)[C@H]1O
Kind of series: purified protein. The following applies: 10 mM Britton-Robinson buffer pH 7.0, 30 °C (standard assay), 2 μg protein, raffinose 10-70 mM. It counts as biochemical, Bombyx mori.

Substrate in series [2]: OC[C@H]1O[C@@](CO)(O[C@H]2O[C@H](CO)[C@@H](O)[C@H](O)[C@H]2O)[C@@H](O)[C@@H]1O
Kind of series: purified protein. Type of series: biochemical, Bombyx mori. The following applies: 10 mM Britton-Robinson buffer pH 7.0, 30 °C (standard assay), 2 μg protein, sucrose 40-280 mM.

B1: BmSUC1 (wtBmSUC1) (Bombyx mori) (protein)
chain: LRQQNETTKRELEEYIADKKAEINPRYRPHYHISPPVGWMNDPNGFSYYKEKFHLFYQFYPYDSVWGPMHWGHVSSSNLIDWEHLPTALIPETEMCFSGGAVVHGDDLVLLYTGRVTTDTDPFYNETQYLAFSNDGVNFRKYEGNPVLSYVPDNSADFRDPKIWKFKDHWYVVIGSSSNKRGRVLLYRSGDLFNWEFLSVLGESDGDMGYMWECPDLFELGGKTIFLWSPQGLEPKGDRYKNTYQTGYYIGELDYETFEFKTDKYFQELDYGHDFYATQTIQGDGKTYLIGWFNMWEVPHLEKEDGWAGTTTLVRELQLIGTRITMNPLEGIQDLRTDSVHNGDLEPQQAIEFGPTAEIILQGCLDQKIELLIQGKEGGLVTTVTWDPEVGKVIVNRSGEVRQVEWVPIGKTSWRLFLDASSLELFCGEGEVVFSSRIFSDGDWVVKNSSPQTLSVEAYRLRRSVPA
notes: full coding region (488 aa, about 56 kDa), C-terminal 6xHis tag kept; expressed in BmN cells by Bac-to-Bac/BmNPV, secreted (N-terminal signal peptide), Ni-NTA purified from culture medium
Regarding B1, in the series “purified protein [1]”, the Km – broadly, the substrate concentration at which the rate is half of its maximum – turned out to be 52.32 ± 17.22 mM; the kcat (in general, the number of substrate molecules converted per active site and unit of time at saturation) was found to be 0.025 ± 0.0028 s⁻¹; the kcat/Km – broadly, the turnover number divided by the Michaelis constant – was found to be 0.291 M⁻¹ s⁻¹. Also, in “purified protein [2]”, the Km came to 88.32 ± 11.75 mM, the kcat is 0.022 ± 0.0009 s⁻¹ and the kcat/Km stood at 0.249 M⁻¹ s⁻¹.

B2: BmSUC1 (wtBmSUC1) (Bombyx mori; D181A) (protein)
chain: LRQQNETTKRELEEYIADKKAEINPRYRPHYHISPPVGWMNDPNGFSYYKEKFHLFYQFYPYDSVWGPMHWGHVSSSNLIDWEHLPTALIPETEMCFSGGAVVHGDDLVLLYTGRVTTDTDPFYNETQYLAFSNDGVNFRKYEGNPVLSYVPDNSADFRAPKIWKFKDHWYVVIGSSSNKRGRVLLYRSGDLFNWEFLSVLGESDGDMGYMWECPDLFELGGKTIFLWSPQGLEPKGDRYKNTYQTGYYIGELDYETFEFKTDKYFQELDYGHDFYATQTIQGDGKTYLIGWFNMWEVPHLEKEDGWAGTTTLVRELQLIGTRITMNPLEGIQDLRTDSVHNGDLEPQQAIEFGPTAEIILQGCLDQKIELLIQGKEGGLVTTVTWDPEVGKVIVNRSGEVRQVEWVPIGKTSWRLFLDASSLELFCGEGEVVFSSRIFSDGDWVVKNSSPQTLSVEAYRLRRSVPA
notes: as for B1
With B2, in the series “purified protein [1]”, the Km was 32.03 ± 4.43 mM, the kcat turned out to be 0.021 ± 0.0014 s⁻¹ and the kcat/Km stood at 0.656 M⁻¹ s⁻¹. In the series “purified protein [2]”, the Km is listed as 52.87 ± 6.85 mM, the kcat came to 0.025 ± 0.0004 s⁻¹ and the kcat/Km stood at 0.473 M⁻¹ s⁻¹.
